The values that follow come from US20250145711A1 (Janssen / Centocor, published 2025).

Assay [1] deals with PSMA on C4-2B human prostate tumor cells (human, UniProt Q04609 1-750). Kind of assay: flow cytometry, C4-2B cells. How it is done: Molecule concentrations ranged from 500-0 nM over 12-points at 3-fold dilution. […] Values reported in the Table 69 were generated by fitting the data to a four-parameter function for ligand binding generating values for y-min, y-max, EC50, and Hill. EC90 were calculated using the equation EC90=[…]\hat{ }(1/Hill)*EC50.
In general terms: In flow cytometry, cells or beads pass a laser one at a time.

Assay [2] addresses T1, human PSMA on prostate cancer cell lines (22RV1, C4-2B) (human, UniProt Q04609 1-750).
T1 construct: also called PSMA-expressing cell lines
The assay can be described thus: flow cytometry on C4-2B cells. A digest of the protocol:
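22RV1 and C4-2B prostate cancer cells (50,000/well, RPMI/10% HI FBS) incubated 60 min at 37 °C with serially diluted antibodies. After washes, bound antibody detected with 2 μg/ml AlexaFluor647 goat anti-human Fc, 30 min at 4 °C, by flow cytometry.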

Assay [3] deals with T1, human PSMA on prostate cancer cell …. The assay can be described thus: flow cytometry on 22RV1 cells; 22RV1 cells. The method, then:
22RV1 and C4-2B cells were plated at 50,000 cells per well in 50 μl of assay medium (RPMI, 10% HI FBS) in V bottom plates. Serial dilutions of antibodies were prepared in assay medium with 50 μl of antibody dilutions added to the plates containing cells. The plates were incubated for 60 min at 37° C. at which time 100 μl of staining buffer (Becton Dickinson Cat #554657) was added to all wells of each plate. The plates were centrifuged at 300×G for 5 minutes and the medium was removed from the wells. 200 μl of staining buffer was added to all wells of each plate. The plates were centrifuged at 300× G for 5 minutes and the medium was removed from the wells. 50 μl of 2 μg/ml AlexaFluor647-labeled goat anti-human Fc was added to all wells of the plates and the plates were incubated for 30 minutes at 4° C. 150 μl of staining buffer was added to all wells of each plate. The plates were centrifuged at 300× G for 5 minutes and the medium was removed from the wells.

T1 sequence (Q04609 whole entry): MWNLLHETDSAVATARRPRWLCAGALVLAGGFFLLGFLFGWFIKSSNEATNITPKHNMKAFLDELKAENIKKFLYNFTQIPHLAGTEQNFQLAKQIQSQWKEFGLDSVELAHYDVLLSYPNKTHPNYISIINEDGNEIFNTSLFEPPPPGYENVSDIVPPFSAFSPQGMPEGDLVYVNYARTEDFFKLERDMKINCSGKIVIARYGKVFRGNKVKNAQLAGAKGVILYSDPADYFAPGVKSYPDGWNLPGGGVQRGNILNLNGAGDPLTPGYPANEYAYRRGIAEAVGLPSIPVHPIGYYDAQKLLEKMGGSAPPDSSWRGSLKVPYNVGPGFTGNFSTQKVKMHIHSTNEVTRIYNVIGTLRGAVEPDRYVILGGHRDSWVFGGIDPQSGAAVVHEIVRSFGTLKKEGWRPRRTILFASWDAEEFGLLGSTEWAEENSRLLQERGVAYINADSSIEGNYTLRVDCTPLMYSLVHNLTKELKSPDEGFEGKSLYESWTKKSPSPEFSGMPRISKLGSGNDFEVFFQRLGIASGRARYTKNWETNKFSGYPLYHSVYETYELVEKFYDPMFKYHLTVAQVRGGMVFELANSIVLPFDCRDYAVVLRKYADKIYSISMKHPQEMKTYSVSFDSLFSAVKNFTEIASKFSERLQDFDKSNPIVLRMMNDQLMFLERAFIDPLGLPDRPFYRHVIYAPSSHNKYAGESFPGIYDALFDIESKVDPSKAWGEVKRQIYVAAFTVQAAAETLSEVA
PSMA on C4-2B human prostate tumor cells, sequence (Q04609 whole entry): as above

B1: PSMB1069 (bispecific antibody, human IgG1, kappa, L234A L235A)
heavy: not shown
light: not shown
chain: QVQLVESGGGEVQPGRSLRLSCAASGFSFSGYGMHWVRQAPGKGLEWVAVMSYDGSNRFYVDSVRGRFSISRDNSKNTLYLQMNSLRPEDTAVYYCARDTVWGSHPDAFDIWGQGTVVTVSSGGSEGKSSGSGSESKSTGGSQSVLTQPPSVSVAPGQTARITCGGNNSGSKSVHWYQQKPGQAPVLVVYDDSDRPSGIPERFSGSNSGNTATLTISRVEAGDEADYYCQVWDSSSDHGVFGGGTKLTVLEPKSSDKTHTCPPCPAPEAAGGPSVFLFPPKPKDTLMISRTPEVTCVVVSVSHEDPEVKFNWYVDGVEVHNAKTKPREEQYNSTYRVVSVLTVLHQDWLNGKEYKCKVSNKALPAPIEKTISKAKGQPREPQVYVLPPSREEMTKNQVSLLCLVKGFYPSDIAVEWESNGQPENNYLTWPPVLDSDGSFFLYSKLTVDKSRWQQGNVFSCSVMHEALHNHYTQKSLSLSPG
notes: HC1/LC1 null arm; HC2 is the anti-PSMA scFv-Fc
In the case of B1, the “fold binding signal (Y-max) over the average” value in assay [1] amounted to 2 fold.

B2: PS3B918 (bispecific antibody, human IgG1, lambda, L234A L235A)
heavy 1: QVQLQQSGPRLVRPSQTLSLTCAISGDSVFNNNAAWSWIRQSPSRGLEWLGRTYYRSKWLYDYAVSVKSRITVNPDTSRNQFTLQLNSVTPEDTALYYCARGYSSSFDYWGQGTLVTVSSASTKGPSVFPLAPSSKSTSGGTAALGCLVKDYFPEPVTVSWNSGALTSGVHTFPAVLQSSGLYSLSSVVTVPSSSLGTQTYICNVNHKPSNTKVDKKVEPKSCDKTHTCPPCPAPEAAGGPSVFLFPPKPKDTLMISRTPEVTCVVVSVSHEDPEVKFNWYVDGVEVHNAKTKPREEQYNSTYRVVSVLTVLHQDWLNGKEYKCKVSNKALPAPIEKTISKAKGQPREPQVYTLPPSREEMTKNQVSLTCLVKGFYPSDIAVEWESNGQPENNYKTTPPVLDSDGSFLLYSKLTVDKSRWQQGNVFSCSVMHEALHNHYTQKSLSLSPG
light 1: QSALTQPASVSGSPGQSITISCTGTSSNIGTYKFVSWYQQHPDKAPKVLLYEVSKRPSGVSSRFSGSKSGNTASLTISGLQAEDQADYHCVSYAGSGTLLFGGGTKLTVLGQPKAAPSVTLFPPSSEELQANKATLVCLISDFYPGAVTVAWKADSSPVKAGVETTTPSKQSNNKYAASSYLSLTPEQWKSHRSYSCQVTHEGSTVEKTVAPTECS
heavy 2: EVQLVESGGGLVKPGGSLRLSCAASGFTFSRYNMNWVRQAPGKGLEWVSSINSNSRYIYYADSVKGRFTISRDSAKNSLYLQMNSLRAEDTAVYYCAKTMGDYYYYYGMDVWGQGTTVTVSSASTKGPSVFPLAPSSKSTSGGTAALGCLVKDYFPEPVTVSWNSGALTSGVHTFPAVLQSSGLYSLSSVVTVPSSSLGTQTYICNVNHKPSNTKVDKKVEPKSCDKTHTCPPCPAPEAAGGPSVFLFPPKPKDTLMISRTPEVTCVVVSVSHEDPEVKFNWYVDGVEVHNAKTKPREEQYNSTYRVVSVLTVLHQDWLNGKEYKCKVSNKALPAPIEKTISKAKGQPREPQVYTLPPSREEMTKNQVSLTCLVKGFYPSDIAVEWESNGQPENNYKTTPPVLDSDGSFFLYSRLTVDKSRWQQGNVFSCSVMHEALHNHYTQKSLSLSPG
light 2: SSELTQPPSVSGAPGQRVTISCAGSLSNIGAGYDVHWYQQLPGTAPKLLIYGNINRLSGVPERFSGSKSGTSASLAITGLQAEDGADYYCQSYDSSLSSYVFGTGTKVTVLGQPKAAPSVTLFPPSSEELQANKATLVCLISDFYPGAVTVAWKADSSPVKAGVETTTPSKQSNNKYAASSYLSLTPEQWKSHRSYSCQVTHEGSTVEKTVAPTECS
notes: FAB-A: CD3B891 (CD3B376 - K477); FAB-B: PSMB890
As a reminder, the EC50 is the midpoint of the concentration-response curve. Consider B2, for which the EC50 is 60 nM in assay [2] and not below 60 nM in assay [3].
